Test: yeast display, Sf9 membrane polyspecificity reagent, FACS + sequencing; frameworks hold sequencing errors
In short: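 A nanobody's polyreactivity label depends on the gate it was sorted from. Yeast display cells were stained with 10% biotinylated, detergent-solubilized Sf9 membrane reagent for 1 hour at 4 °C, enriched on streptavidin microbeads and sorted by FACS. The low and high (top ~1%) gates were set on anti-HA fluorescence for expression and streptavidin fluorescence for reagent binding.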

| Sequence | polyreactivity (PSR sort gate) |
| --- | --- |
| QVQLVESGGGLVQAGGSLRLSCAASGCTFLYYMGWYRQAPGKERELVSALTFSGGSTYYADSVKGRFTISRDNAKNTVYLQMNSLKPEDTAVDDGAAGWYDWPKYLLSVYTYYLYDYWGQGSQVTVSS | low polyreactivity |
| QVQLVESGGGLVQAGGSLRLSCAASGDTFTSYAMGWYRQAPGKERELVAAISRRGGSTYYADSVKGRFTISRDNAKNTVYLQMNSLKPEDTAVYYCAAKSYSYTEFDYWGQGTQVTVSS | high polyreactivity |
| QVQLVESGGGLVQAGGSLRLSCAASGFAFGVYAMGWDRQAAGKERELVAAITRSGGSTYYADSVKGRFTISRDNAKNTVYLQMNSLKPEDTAVYYCAARARDHYGYWGQGTQVTVSS | high polyreactivity |
| QVQLVESGGGLVQAGGSLRLSCAASGFDGYAMGWYRQAPGKERELVAAISWSGSRTYYADSVKGRFTISRDNAKNTVYLQMNSLKPEDTAVYYCAADDVGRGSTPYDYWGQGTQVTVSW | high polyreactivity |
| QVQLVESGGGLVQAGGSLRLSCAASGFICDYNAMGWYRQAPGKERELVAAISGGGGSTYYADSVKGRFTISRDNAKKTVYLQMNSLKPEDTAVYYCAKRYRGGYWGQGTQVTVSS | high polyreactivity |
| QVQLVESGGGLVQAGGSLRLSCAASGFICGYNAMGWYRQAPGKERELVASINWSGGRTYYADSVKGRFTISRDNAKITVYLQMNSLKPEHTAVYYCNADGSRRYNYWGQGTQVTVSS | low polyreactivity |
| QVQLVESGGGLVQAGGSLRLSCAASGFIFAASALGWSRQAAGKEREFVAAISNSGTSTYYADSVKGRFTISRDNAKNTVYLQMNSLKPEDTAVYYCAAPWSTAYDYWGQGTQVTVSS | high polyreactivity |
| QVQLVESGGGLVQAGGSLRLSCAASGFIFAAYAKGWYRQAPGKERELVAAISGSGGRTYYADSVKGRFTISRDNAKYTVYLQMNSLKPEDTAVYYCGTPPGYPPGSIIWSRFGFWGQGTQVTVSS | high polyreactivity |
| QVQLVESGGGLVQAGGSLRLSCAASGFIFADYTMGWYRQPPGKERELVAAITRSGDSTYYADSVKGRFTISRDNAKNTVYLQMNSLKPEDTAVYYCNAVNDWYYAYYGVTSFRSYDYWGQGTQVTVSS | low polyreactivity |
| QVQLVESGGGLVQAGGSLRLSCAASGFIFAGYAMGWYRQAPGKERELVAAISWDGGSTYYADSVKGRFTISRDNAKNTVYLQMNSLKPEDTAVYYCARARYGKYGYWGQATQVTVSS | low polyreactivity |
| QVQLVESGGGLVQAGGSLRLSCAASGFIFAIYAMGWYRQAPGKERELVAAINSDGSTYYADSVKGRFTISRDNAKNTVYLQMNSLKPEDTAVYYCNAETAGHDMDYWGQGTQVTVSS | low polyreactivity |
| QVQLVESGGGLVQAGGSLRLSCAASGFIFAIYAMGWYRQAPGKERELVAAITSSSSTYADSVKGRFTISRDNAKNTVYLQMNSLKPEDTAVYYCAADTYSYRNSNDYWGQGTQVTVSS | low polyreactivity |
| QVQLVESGGGLVQAGGSLRLSCAASGFIFANNAMGWYRQAPGKEREWVAAITSRGGGTYYADSVKGRFTISRDNAKNTVYLQMNCLKPEDTAVYYCAVRTYRFRHWPKYDYWGQGNQVTVSS | high polyreactivity |
| QVQLVESGGGLVQAGGSLRLSCAASGFIFANYAMGWYRQAPGKERELVAAISSGRITYYADSVKGRFTISRDNAKNTVYLQMNSLKPEDTAVYYCAADVLYQDRSGEYHHWDGDYWGQGTQVTVSS | low polyreactivity |
| QVQLVESGGGLVQAGGSLRLSCAASGFIFAPNAMGWYRQAPGKERELVAAISHSGASTFYADSVKGRFTISRDNAKNTVYLQMNILKPEDTAVYYCAADLYIYYVWIRDYWGHGTQVTVSS | low polyreactivity |
| QVQLVESGGGLVQAGGSLRLSCAASGFIFAPNAMGWYRQAPGKERELVAAISHSGASTFYADSVKGRFTISRDYAKNTVYLQMNSLKPEDTAVYYCGAPPYYSYDYWRQGTQVTVSS | low polyreactivity |
| QVQLVESGGGLVQAGGSLRLSCAASGFIFARYAMGWYRQAPGKVRELVARITTGDSTYYADSVKGRFTISRDNAKNTVYLQMNSLKPEDTAVYYCAADDNVSVVGLYYWGQGTQVTVSS | low polyreactivity |
| QVQLVESGGGLVQAGGSLRLSCAASGFIFASNAMGWYRQAPGKERELVAGITKSGGSTYYADSVKGRFTISRDNAKNTVYLQMNSLKPEDTAVYYCAKVSYARAKSSGFYYWGQGTQVTVSS | high polyreactivity |
| QVQLVESGGGLVQAGGSLRLSCAASGFIFASNAMGWYTQAPGKERELVASITIGDSTYYADSVKGRFTISRDNAKNTVYLQMNSLKPEDTAVYYCAAVKTVDVGYDYWGQGTQVTVSS | low polyreactivity |
| QVQLVESGGGLVQAGGSLRLSCAASGFIFASYAMGWYRQAPGKERELVAAISSSGGRTYYADSVKGRFTISRDNAKNTVYLQMNSLKPEDTAVYYCAADWRVTYDYWGQGTQVTVSS | high polyreactivity |
| QVQLVESGGGLVQAGGSLRLSCAASGFIFASYAMGWYRQAPGKERELVATITRNGGITYYADSVKGRFTISRDNAKNTVYLQMNSLKPEDTAVYYCAKRRSGKSNVSFYPYAYDYWGQGTQVTVSS | low polyreactivity |
| QVQLVESGGGLVQAGGSLRLSCAASGFIFATNTMGWYRQAPGKERELVAASSTYYADSVKGRFTISRDNAKNTVYLQMNSLKPEDTAVYYCNADRDSYIGFDLSESDYWGQGTQVTVSS | low polyreactivity |
| QVQLVESGGGLVQAGGSLRLSCAASGFIFATYAMGWYRQAPGKERELVASINWSGGRTYYADSVKGRFTISRDNAKNTVYFQMNSLKPEDTEVYYCAARISTRYEYWGHGTQVTVSS | high polyreactivity |
| QVQLVESGGGLVQAGGSLRLSCAASGFIFATYNMGWYRQAPGKERELVAAITWRGGSTYYADSVKGRFTISRDNAKITVYLQMNSLKPEDTAVYYCAAQDVYSYRYVEDDYWGQGTQVTVSS | low polyreactivity |
| QVQLVESGGGLVQAGGSLRLSCAASGFIFAWYAMGWYRQAPGKERELVAAITSSGTSTYYADSVKGRFTISRDNAKNTVYLQMNSLTPEDTAVYYCAAVTKRYLAYDYWGQGTQVTVSS | high polyreactivity |
| QVQLVESGGGLVQAGGSLRLSCAASGFIFAYYAMGWYRQAPGKERELVAAISSRGGTYYADSVKGRFTISRDNAKNTVYFQMNSLKPEDTAVYYCAAASYTWVSRGYEYWGQGTQVTVSS | high polyreactivity |
| QVQLVESGGGLVQAGGSLRLSCAASGFIFDDNAMGWYRQAPGKERELVAAITSGGGTTYYADSVKGRFTISRDTAKNTVYLQMNSLKPEDTAVYYCNAVPSQHDEFDYWGQGTQVTVSS | low polyreactivity |
| QVQLVESGGGLVQAGGSLRLSCAASGFIFDKNAMGWYRQAPGKERELVATITSGGSTYYADSVKGRFTISRDNAKNTVYFQMNSLKPDETAVYYCAALDYGYRWYRYYYWGQGTQVTVSS | high polyreactivity |
| QVQLVESGGGLVQAGGSLRLSCAASGFIFDLYAMGWYRQAPGKERELVAVISYDGGSTYYADSVKGRFTISRDNAKNTVYLQMNSLNPEDTAVYYCNTYAGLVSPSDLYDYWGQGTQVTVSS | low polyreactivity |
| QVQLVESGGGLVQAGGSLRLSCAASGFIFDQNAMGCYRQAPGKEREFVAAISSRGSRTYYADSVKGRFTISRDKAKNTVYLQMNSLKPEDTAVYDCAAGYWARLYDYDYWGQGTQVTVSS | high polyreactivity |

Reference: the nanobody polyreactivity screen of Harvey et al. (2022)
